B1: sybody Sb15 (VHH)
VHH: QVQLVESGGGLVQAGGSLRLSCAASGFPVKNFEMEWYRKAPGKEREWVAAIQSGGVETYYADSVKGRFTISRDNAKNTVYLQMNSLKPEDTAVYYCFVYVGRSYIGQGTQVTVS
B2: sybody Sb68 (VHH)
VHH: QVQLVESGGGSVQAGGSLRLSCAASGSISSITYLGWFRQAPGKEREGVAALITVNGHTYYADSVKGRFTVSLDNAKNTVYLQMNSLKPEDTALYYCAAAAWGYAWPLHQDDYWYWGQGTQVTVSA
B3: sybody Sb14 (VHH)
VHH: QVQLVESGGGLVQAGGSLRLSCAASGFPVQAREMEWYRQAPGKEREWVAAIKSTGTYTAYAYSVKGRFTISRDNAKNTVYLQMNSLKPEDTAVYYCYVYVGSSYIGQGTQVTVSA
B4: sybody Sb16 (VHH)
VHH: QVQLVESGGGLVQAGGSLRLSCAASGFPVAYKTMWWYRQAPGKEREWVAAIESYGIKWTRYADSVKGRFTISRDNAKNTVYLQMNSLKPEDTAVYYCIVWVGAQYHGQGTQVTVSA

Tests used:
[1] = target: T1, SARS-CoV-2 spike receptor-binding domain (amino acids 333–529), bacteria-expressed and refolded (SARS-CoV-2, UniProt P0DTC2 333-529); assay: SPR
[2] = target: T1, SARS-CoV-2 spike receptor-binding …; assay: SPR; remark: listed apart in the source

Row | Binder | koff [1] [s⁻¹] | Kd [2] [nM]
1 | B1 | 0.011 | 
2 | B2 | 0.023 | 
3 | B3 | 0.007 | 13.8
4 | B4 | 0.02 | 40.6
